# Measurements from patent publication US20250243277A1 (AVACTA LIFE SCIENCES, published 2025).
# Target: T1, human PD-L1-Fc (R&D Systems) (human, UniProt Q9NZQ7 19-239)
# T1 construct: Bought from R&D Systems; Biotinylated in-house for the phage selection; also called huPD-L1-Fc; human PD-L1-Fc antigen; not shown: Fc part of the bought fusion
# Test: SPR (Biacore 8K), binding to PD-L1-Fc
# T1 sequence (Q9NZQ7 19-239 limits assumed): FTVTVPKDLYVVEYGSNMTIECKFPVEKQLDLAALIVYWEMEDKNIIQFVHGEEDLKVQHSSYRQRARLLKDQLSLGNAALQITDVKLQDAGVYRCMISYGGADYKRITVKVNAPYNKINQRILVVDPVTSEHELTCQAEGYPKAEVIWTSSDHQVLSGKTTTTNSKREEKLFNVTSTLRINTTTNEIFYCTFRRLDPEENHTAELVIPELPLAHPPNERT
Kd,binding result,Binder
1.48 nM,–,"Clone 80 L83A (designed binder, alanine mutant of Clone 80 made in E. coli) MIPGGLSEAKPATPEIQEIVDKVKPQLEEKTGETYGKLEAVQYKTQVVRRKHFPQWPGTNYYIKVRAGDNKYMHLKVFKSLDAQPREVFQEDLVLTGYQVDKNKDDELTGF"
0.93 nM,–,"Clone 80 P54A (designed binder, alanine mutant of Clone 80 made in E. coli) MIPGGLSEAKPATPEIQEIVDKVKPQLEEKTGETYGKLEAVQYKTQVVRRKHFAQWPGTNYYIKVRAGDNKYMHLKVFKSLDLQPREVFQEDLVLTGYQVDKNKDDELTGF"
38 nM,–,"Clone 80 H52A (designed binder, alanine mutant of Clone 80 made in E. coli) MIPGGLSEAKPATPEIQEIVDKVKPQLEEKTGETYGKLEAVQYKTQVVRRKAFPQWPGTNYYIKVRAGDNKYMHLKVFKSLDLQPREVFQEDLVLTGYQVDKNKDDELTGF"
2.61 nM,–,"Clone 80 F89A (designed binder, alanine mutant of Clone 80 made in E. coli) MIPGGLSEAKPATPEIQEIVDKVKPQLEEKTGETYGKLEAVQYKTQVVRRKHFPQWPGTNYYIKVRAGDNKYMHLKVFKSLDLQPREVAQEDLVLTGYQVDKNKDDELTGF"
1.69 nM,–,"Clone 80 Q55A (designed binder, alanine mutant of Clone 80 made in E. coli) MIPGGLSEAKPATPEIQEIVDKVKPQLEEKTGETYGKLEAVQYKTQVVRRKHFPAWPGTNYYIKVRAGDNKYMHLKVFKSLDLQPREVFQEDLVLTGYQVDKNKDDELTGF"
8.91 nM,–,"Clone 80 P57A (designed binder, alanine mutant of Clone 80 made in E. coli) MIPGGLSEAKPATPEIQEIVDKVKPQLEEKTGETYGKLEAVQYKTQVVRRKHFPQWAGTNYYIKVRAGDNKYMHLKVFKSLDLQPREVFQEDLVLTGYQVDKNKDDELTGF"
–,no binding,"Clone 80 F53A (designed binder, alanine mutant of Clone 80 made in E. coli) MIPGGLSEAKPATPEIQEIVDKVKPQLEEKTGETYGKLEAVQYKTQVVRRKHAPQWPGTNYYIKVRAGDNKYMHLKVFKSLDLQPREVFQEDLVLTGYQVDKNKDDELTGF"

# Second part, the binder before the results:
Binder,Kd,binding result
"Clone 80 D82A (designed binder, alanine mutant of Clone 80 made in E. coli) MIPGGLSEAKPATPEIQEIVDKVKPQLEEKTGETYGKLEAVQYKTQVVRRKHFPQWPGTNYYIKVRAGDNKYMHLKVFKSLALQPREVFQEDLVLTGYQVDKNKDDELTGF",5.08 nM,–
"Clone 80 P85A (designed binder, alanine mutant of Clone 80 made in E. coli) MIPGGLSEAKPATPEIQEIVDKVKPQLEEKTGETYGKLEAVQYKTQVVRRKHFPQWPGTNYYIKVRAGDNKYMHLKVFKSLDLQAREVFQEDLVLTGYQVDKNKDDELTGF",2.53 nM,–
"Clone 80 W56A (designed binder, alanine mutant of Clone 80 made in E. coli) MIPGGLSEAKPATPEIQEIVDKVKPQLEEKTGETYGKLEAVQYKTQVVRRKHFPQAPGTNYYIKVRAGDNKYMHLKVFKSLDLQPREVFQEDLVLTGYQVDKNKDDELTGF",–,no binding
"Clone 80 R50A (designed binder, alanine mutant of Clone 80 made in E. coli) MIPGGLSEAKPATPEIQEIVDKVKPQLEEKTGETYGKLEAVQYKTQVVRAKHFPQWPGTNYYIKVRAGDNKYMHLKVFKSLDLQPREVFQEDLVLTGYQVDKNKDDELTGF",–,no binding
"Clone 80 Q84A (designed binder, alanine mutant of Clone 80 made in E. coli) MIPGGLSEAKPATPEIQEIVDKVKPQLEEKTGETYGKLEAVQYKTQVVRRKHFPQWPGTNYYIKVRAGDNKYMHLKVFKSLDLAPREVFQEDLVLTGYQVDKNKDDELTGF",0.61 nM,–

# Target: T1, human PD-L1-Fc (R&D Systems)
# Test: PD-L1/PD-1 competition ELISA, % inhibition: Affimer pre-incubated with huPD-L1-Fc, then loaded on plate-coated human PD-1-Fc (blocked ligand). Column head on the sheet reads 'EC50nM'; the text calls these values IC50
# Description: The competitive inhibition of AFFIMER® multimers was evaluated by enzyme linked immunosorbent assay (ELISA). Human PD-1-Fc (R&D Systems) was coated at 0.5 μg/ml on the plate. Plates were washed two times with […] of washing buffer (PBS, Tween 20 0.1%) with a plate washer and saturated with Casein 5% (Sigma) in PBS for 90 minutes at room temperature (25±1° C.). Plates were subsequently washed. AFFIMER® polypeptides and controls (human PD-1-Fc; R&D Systems or blank) were then diluted in duplicate, and preincubated with huPD-L1-Fc (R&D Systems) at a predefined concentration equivalent to the EC₈₀ for 30 minutes then loaded on the plate for 90 minutes at room temperature (25±1° C.). Plates were washed 3 times. Biotinylated polyclonal antibody anti-human PD-L1 (R&D Systems) was then diluted in dilution buffer and incubated 90 minutes at room temperature (25±1° C.). Plates were washed 3 times and Streptavidin HRP was incubated for 30 minutes at room temperature (25±1° C.). Plates were washed and the substrate (TMB; Pierce Thermo-Scientific) added to the plate for 10 minutes. The reaction was stopped using an acidic solution and plates were read at absorbance 450-630 nm. The IC₅₀ was then calculated using the interpolated non-linear four-parameter standard curve.
row,EC50,Binder
1,69.9 nM,"Clone 58 (designed binder, His-tagged) MIPGGLSEAKPATPEIQEIVDKVKPQLEEKTGETYGKLEAVQYKTQVVKQLIIWHWTGTNYYIKVRAGDNKYMHLKVFKSLFKNSNSHLEEDLVLTGYQVDKNKDDELTGF"
2,197 nM,"Clone 52 (designed binder, His-tagged) MIPGGLSEAKPATPEIQEIVDKVKPQLEEKTGETYGKLEAVQYKTQVVGIREDWNWSGTNYYIKVRAGDNKYMHLKVFKSLFEPKKLEPAEDLVLTGYQVDKNKDDELTGF"

# Target: T1, human PD-L1-Fc (R&D Systems)
# Test: SPR (Biacore T200): human PD-L1-Fc amine-coupled on a CM5 chip, Affimer monomer titrated as analyte, 1:1 Langmuir fit
# Description: BIACORE™ T200 binding kinetic analysis was performed on monomer AFFIMER® clones with running buffer HBS-EP+ (Cytiva) and a series S sensor CM5 chip immobilized with human PD-L1-Fc (R&D Systems) in 10 mM Sodium acetate pH4.0 μsing amine coupling reagents (Cytiva). A concentration titration of AFFIMER® monomer was run as analyte with an association time of 150 seconds, followed by a dissociation time of 300 seconds at a flow rate of 30 μl/min. For Clone 80, the association time was increased to 500 seconds and 1000 seconds dissociation time. The human PD-L1-Fc immobilized surface was regenerated with 3-3.5 mM NaOH solution (Cytiva) for 20-30 seconds at 20 μl/min flow rate. The kinetic data was blank subtracted and fit to a 1:1 Langmuir binding model (BIAcore evaluation software; Cytiva) to calculate an apparent KD value.
Kd,koff,kon,Binder
44 nM,0.0457 s⁻¹,1.04e+06 M⁻¹ s⁻¹,"Clone 111 (designed binder, His-tagged) MIPGGLSEAKPATPEIQEIVDKVKPQLEEKTGETYGKLEAVQYKTQVDIQDRLGGFIGTNYYIKVRAGDNKYMHLKVFKSLHFYRGILYREDLVLTGYQVDKNKDDELTGF"

# Target: T1, human PD-L1-Fc (R&D Systems)
# Test: soluble Affimer ELISA
row,binding result,Binder
1,binds,"Clone 8 (designed binder, His-tagged) MIPGGLSEAKPATPEIQEIVDKVKPQLEEKTGETYGKLEAVQYKTQVVPLPDPIDWVGTNYYIKVRAGDNKYMHLKVFKSLHIHLNQIYREDLVLTGYQVDKNKDDELTGF"
2,binds,"Clone 83 (designed binder, His-tagged) MIPGGLSEAKPATPEIQEIVDKVKPQLEEKTGETYGKLEAVQYKTQVVIYHELWNFYGTNYYIKVRAGDNKYMHLKVFKSLDNNGDGNWQEDLVLTGYQVDKNKDDELTGF"
3,binds,"Clone 90 (designed binder, His-tagged) MIPGGLSEAKPATPEIQEIVDKVKPQLEEKTGETYGKLEAVQYKTQVVLGWWFGINQGTNYYIKVRAGDNKYMHLKVFKSLAHLQYEWGGEDLVLTGYQVDKNKDDELTGF"
4,binds,"Clone 93 (designed binder, His-tagged) MIPGGLSEAKPATPEIQEIVDKVKPQLEEKTGETYGKLEAVQYKTQVDQWGVDLVYTGTNYYIKVRAGDNKYMHLKVFKSLIVKRAVILWEDLVLTGYQVDKNKDDELTGF"
5,binds,"Clone 92 (designed binder, His-tagged) MIPGGLSEAKPATPEIQEIVDKVKPQLEEKTGETYGKLEAVQYKTQVDIDDDLWSGTNYYIKVRAGDNKYMHLKVFKSLILWPTKPEREDLVLTGYQVDKNKDDELTGF"
6,binds,"Clone 97 (designed binder, His-tagged) MIPGGLSEAKPATPEIQEIVDKVKPQLEEKTGETYGKLEAVQYKTQVDELDDAVKYWGTNYYIKVRAGDNKYMHLKVFKSLWWKTISADFEDLVLTGYQVDKNKDDELTGF"

# Second part, the binder before the results:
row,Binder,binding result
1,"Clone 94 (designed binder, His-tagged) MIPGGLSEAKPATPEIQEIVDKVKPQLEEKTGETYGKLEAVQYKTQVDKVYLVWAWTGTNYYIKVRAGDNKYMHLKVFKSLFQKGSNKPEEDLVLTGYQVDKNKDDELTGF",binds
2,"Clone 98 (designed binder, His-tagged) MIPGGLSEAKPATPEIQEIVDKVKPQLEEKTGETYGKLEAVQYKTQVDWAIWRDKKVGTNYYIKVRAGDNKYMHLKVFKSLPIFEIVREGEDLVLTGYQVDKNKDDELTGF",binds
3,"Clone 91 (designed binder, His-tagged) MIPGGLSEAKPATPEIQEIVDKVKPQLEEKTGETYGKLEAVQYKTQVVNQEHFRRFIGTNYYIKVRAGDNKYMHLKVFKSLNPWLHPQDFEDLVLTGYQVDKNKDDELTGF",binds
4,"Clone 85 (designed binder, His-tagged) MIPGGLSEAKPATPEIQEIVDKVKPQLEEKTGETYGKLEAVQYKTQVVNDGKSLVLAGTNYYIKVRAGDNKYMHLKVFKSLRLWDDRVSGEDLVLTGYQVDKNKDDELTGF",binds
5,"Clone 87 (designed binder, His-tagged) MIPGGLSEAKPATPEIQEIVDKVKPQLEEKTGETYGKLEAVQYKTQVVKRLHLPQYPGTNYYIKVRAGDNKYMHLKVFKSLGNIEPITDLEDLVLTGYQVDKNKDDELTGF",binds
6,"Clone 88 (designed binder, His-tagged) MIPGGLSEAKPATPEIQEIVDKVKPQLEEKTGETYGKLEAVQYKTQVVAVHAPQYAPGTNYYIKVRAGDNKYMHLKVFKSLWSEKVAVFPEDLVLTGYQVDKNKDDELTGF",binds
7,"Clone 99 (designed binder, His-tagged) MIPGGLSEAKPATPEIQEIVDKVKPQLEEKTGETYGKLEAVQYKTQVDTWGERLHYPGTNYYIKVRAGDNKYMHLKVFKSLWHKPKDNIIEDLVLTGYQVDKNKDDELTGF",binds
